Test results from the supplement of paper PMC9732359.
± gives the uncertainty stated by the source.

Experiment: protein stability index of a GFP-peptide fusion (yeast GPS) (PSI 1-4); higher = more stable; sorted into four equal gates, so the index is relative within each strain
Summary of the method: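 The protein stability index combines read frequencies across sorting gates, each weighted by its gate number and then summed. To obtain those frequencies, a pooled yeast library of GFP fusions to tiled 17-residue yeast protein peptides, on a plasmid also expressing Cherry, was grown to mid-log phase in leucine-free medium. The cells were sorted into four equal gates by GFP/Cherry ratio before plasmid amplification by PCR and Illumina sequencing.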

Sequence | protein stability index (doa10∆) | protein stability index (pdr5∆) | protein stability index (san1∆) | protein stability index (ubr1∆)
IKKMLHLVWMKGTNDEG [YCS4] | 3.17 ± 0.2 | 3.51 ± 0.11 | 3.19 ± 0.16 | 3.33 ± 0.18
VQIKDVNDRYQIPTPNN [CSI1] | 1.72 ± 0.05 | 2.25 ± 0.064 | 1.75 ± 0.12 | 1.73 ± 0.049
SPVELSRMFEEVSGSIQ [SMC1] | 2.9 ± 0.06 | 2.16 ± 0.052 | 2.38 ± 0.065 | 3.02 ± 0.062
FEKKELQEKFLNQIATL [IRR1] | 1.08 ± 0.056 | 1.23 ± 0.057 | 1.15 ± 0.1 | 1.04 ± 0.062
KMFIQRILAMCVKNHGQ [YCS4] | 1.69 ± 0.062 | 2.1 ± 0.055 | 2.22 ± 0.071 | 1.92 ± 0.057
INQIFSPEEQRSLLQEA [GAL11] | 2.95 ± 0.12 | 3.07 ± 0.063 | 3.53 ± 0.11 | 3.03 ± 0.1
TNPSSIFGGAGGVPTTS [YOR098C/NUP1] | 1.72 ± 0.066 | 2.36 ± 0.076 | 2.15 ± 0.086 | 1.59 ± 0.053
VVETITSLLNKVLKSGS [RRP42] | 2.67 ± 0.11 | 2.37 ± 0.067 | 2.54 ± 0.085 | 2.45 ± 0.051
LQQGMRGAWGKPHGLAA [RPL10] | 2.47 ± 0.1 | 2.57 ± 0.097 | 2.24 ± 0.23 | 2.52 ± 0.069
YLDADVAKLANWFLEVY [YML031W/NDC1] | 2.45 ± 0.081 | 2.63 ± 0.099 | 2.91 ± 0.12 | 2.79 ± 0.077
YDIDEIDHSDESNRQSV [ESC2] | 3.19 ± 0.14 | 3.35 ± 0.096 | 3.23 ± 0.13 | 3.84 ± 0.25
CKLFLADVFTDDDLFET [YCG1] | 3.03 ± 0.08 | 3.06 ± 0.051 | 3.03 ± 0.048 | 2.59 ± 0.038
LSGNSVEDVSQNAADLQ [RPL9A] | 3.31 ± 0.15 | 3.55 ± 0.15 | 2.78 ± 0.13 | 3.31 ± 0.058
IAASAFLSLLNLATKGM [REC8] | 1.54 ± 0.054 | 1.52 ± 0.054 | 1.71 ± 0.1 | 1.62 ± 0.046
RAKAEAAEFRYKYGYDM [SCL1] | 2.85 ± 0.065 | 2.91 ± 0.063 | 2.71 ± 0.058 | 2.57 ± 0.047
EPELRVLSTEEILNIFK [RPO21] | 3.43 ± 0.22 | 3.45 ± 0.17 | 3.51 ± 0.084 | 3.55 ± 0.23
FNTEAEQTVSAVTEATS [RGR1] | 2.67 ± 0.28 | 3.41 ± 0.15 | – | –
DKDSTKEVASLPNKSTI [FAS2] | 3.13 ± 0.089 | 3.1 ± 0.12 | 3.02 ± 0.072 | 3.21 ± 0.14
NIKNTNEEATPIPSSET [RRP6] | 2.61 ± 0.049 | 2.98 ± 0.052 | 2.44 ± 0.048 | 2.67 ± 0.056
IATDGGRICRPLIIVSD [RET1] | 2.01 ± 0.046 | 2.1 ± 0.037 | 1.73 ± 0.06 | 2.14 ± 0.038
EQENMRKVREQEELKKR [MED2] | – | 3.13 ± 0.19 | – | 3.56 ± 0.11
RTKNLVSKMEKAEKTLK [SMC4] | 2.91 ± 0.22 | 3.1 ± 0.056 | 3.21 ± 0.065 | 3.09 ± 0.058
EIKDGRSLFLRNRGKIH [YMR153W/NUP53] | 2.01 ± 0.095 | 2.2 ± 0.068 | 1.54 ± 0.16 | 2.46 ± 0.066
AKGVYRPNGRKDHDLKI [POP1] | 2.88 ± 0.078 | 3.08 ± 0.052 | 2.93 ± 0.049 | 3.03 ± 0.061
QYESQAPDGSASISLPN [SWP82] | 2.97 ± 0.055 | 2.61 ± 0.05 | 2.92 ± 0.038 | 2.83 ± 0.029
AIMKPYYLWTGKQVFSL [RPO31] | 2.71 ± 0.13 | 2.91 ± 0.11 | 2.83 ± 0.085 | 2.72 ± 0.061

Sequence | protein stability index (doa10∆) | protein stability index (pdr5∆) | protein stability index (san1∆) | protein stability index (ubr1∆)
LLVERLKEDDSSLYEAS [RPN1] | 3.22 ± 0.12 | 3.38 ± 0.12 | 3.06 ± 0.1 | 3.16 ± 0.18
KTKWDRKPMGKRINFEK [POP1] | 2.84 ± 0.11 | 3.35 ± 0.075 | 2.75 ± 0.23 | 3 ± 0.17
LAYSKIVNGQTFSYVDS [YMR129W/POM152] | 2.25 ± 0.045 | 2.64 ± 0.059 | 2.53 ± 0.054 | 1.95 ± 0.042
KNTEEGKALVHHYEECA [QCR6] | 3.37 ± 0.067 | 3.29 ± 0.072 | 3.5 ± 0.051 | 3.38 ± 0.052
RTMYFILDGQDVEENRS [YJR042W/NUP85] | 2.45 ± 0.077 | 3.03 ± 0.089 | 3.22 ± 0.086 | 3.23 ± 0.044
LDESSEQKNTAKEELNG [YIL149C/MLP2] | 3.1 ± 0.15 | 2.95 ± 0.27 | 3.21 ± 0.072 | 3.22 ± 0.087
LKKNNYNSFPHSNLEKI [SIR4] | 3.06 ± 0.099 | 3.27 ± 0.094 | 3.19 ± 0.053 | 3.17 ± 0.054
IKGNGESDETTTDNNNS [RPT1] | 3.15 ± 0.15 | – | 3.38 ± 0.04 | 3.53 ± 0.11
AFIDERASDLRMTIRTR [RRP43] | 1.81 ± 0.18 | 1.57 ± 0.11 | 1.24 ± 0.25 | 1.39 ± 0.12
NLGIPKIAYRGVKDCQE [SSN2] | 1.49 ± 0.2 | 1.58 ± 0.19 | 1.54 ± 0.26 | 1.13 ± 0.16
QALQMKAMDIPIGRHEE [SWP82] | 2.86 ± 0.22 | 2.29 ± 0.13 | – | 2.08 ± 0.062
QSRVPTSLTSIKWENAF [PRP8] | 3.21 ± 0.077 | 3.3 ± 0.11 | 3.44 ± 0.072 | 3.18 ± 0.048
QLFHSMSIVFGDKFSED [UBP6] | 1.62 ± 0.056 | 1.34 ± 0.06 | 1.14 ± 0.094 | 1.38 ± 0.041
VRCVNCSKSIPKDKAIK [RPS26A] | 2.77 ± 0.067 | 3 ± 0.071 | 2.77 ± 0.063 | 2.82 ± 0.044
GNGNVSESDIINNLPPE [YCG1] | 2.85 ± 0.24 | 2.85 ± 0.13 | 2.95 ± 0.27 | 2.78 ± 0.15
REAIRPGHEMEDFLDKS [AAR2] | 3.23 ± 0.062 | 2.87 ± 0.056 | 3.24 ± 0.044 | 3.22 ± 0.036
TETEVEREQPQENKNID [SRB4] | 3.42 ± 0.1 | 3.41 ± 0.091 | 3.07 ± 0.068 | 3.62 ± 0.089
WLEQFLSCVKNDTISED [NUT1] | 1.73 ± 0.046 | 1.51 ± 0.04 | 1.36 ± 0.059 | 1.54 ± 0.035
SSFGSESLTFNEFQLQW [SWI1] | 2.98 ± 0.066 | 2.84 ± 0.056 | 2.56 ± 0.054 | 3.02 ± 0.046
YKRQKSSLLYTYDENDD [ESC2] | 1.25 ± 0.059 | 1.42 ± 0.07 | 1.17 ± 0.11 | 1.21 ± 0.06
EKQTPNKKDKKKEEEEQ [RPN1] | 3 ± 0.059 | 2.98 ± 0.092 | 3.01 ± 0.042 | 3.16 ± 0.058
KKKRFEIKKWTAVAFWS [HRT1] | 1.97 ± 0.18 | 1.58 ± 0.12 | 1.55 ± 0.26 | 2.27 ± 0.1
NSSEEDKKKGQNVTSET [ITC1] | 3.5 ± 0.14 | 3.31 ± 0.17 | 3.06 ± 0.17 | 3.29 ± 0.11
VRQKIKTLKRMIKESST [POP1] | 1.47 ± 0.039 | 1.68 ± 0.052 | 1.45 ± 0.081 | 1.93 ± 0.044
TRSHFNALYDTLLESNL [RPN6] | 2.3 ± 0.05 | 2.49 ± 0.057 | 2.65 ± 0.047 | 2.69 ± 0.042
